We go through 6 substances from US6384302.

Experiment in all cases: cell-based or functional assay
The target of one experiment is bovine trypsin (bovine) (UniProt P00760).
The target in experiment [1] is Helicoverpa zea (H. zea) midgut trypsin (Helicoverpa zea).
Experiment [2] addresses trypsin (source not stated).

On to “Affinity purified P. macroloba trypsin inhibitor (PmTI)”, for which, in the experiment with bovine trypsin (bovine), the IA = Inhibitory Activity in IUs (BAPNA hydrolysis) was 4.96 IU and the SA = Specific Activity in IU/mg protein (IU/mg protein) is 2.48. Also, in experiment [1], the IA = Inhibitory Activity in IUs (BAPNA hydrolysis) is 7.46 IU and the SA = Specific Activity in IU/mg protein (IU/mg protein) was found to be 3.73.
Regarding “Bowman-Birk trypsin inhibitor (soybean) (from UniProt P01055 40-110)”, the values for the SA = Specific Activity in IU/mg protein (IU/mg protein) (with bovine trypsin (bovine); in experiment [1]) were 5.03 and 2.1, respectively.
In the experiment with bovine trypsin (bovine), Crude P. macroloba seed extract registered an IA = Inhibitory Activity in IUs (BAPNA hydrolysis) of 0.119 IU and an SA = Specific Activity in IU/mg protein (IU/mg protein) of 0.038. Besides, in experiment [1], the IA = Inhibitory Activity in IUs (BAPNA hydrolysis) came out at 0.245 IU and the SA = Specific Activity in IU/mg protein (IU/mg protein) was found to be 0.079. In experiment [2], this substance displayed an inhibition activity after heating at 70° C. for 5 minutes of 3.7 IU/mg TI and an inhibition activity before heating of 2.2 IU/mg TI.
As to “Kunitz trypsin inhibitor (soybean) (from UniProt P01070 25-205)”, the figures for the SA = Specific Activity in IU/mg protein (IU/mg protein) (in the experiment with bovine trypsin (bovine); in experiment [1]) were 1.02 and 0.845, respectively.
Take “P. macroloba large trypsin inhibitor (PmLTI)”: in the experiment with bovine trypsin (bovine), the IA = Inhibitory Activity in IUs (BAPNA hydrolysis) amounted to 5.57 IU and the SA = Specific Activity in IU/mg protein (IU/mg protein) amounted to 2.78. In experiment [1], this substance showed an IA = Inhibitory Activity in IUs (BAPNA hydrolysis) of 7.86 IU and an SA = Specific Activity in IU/mg protein (IU/mg protein) of 3.93.
In the same order, the values of “P. macroloba small trypsin inhibitor (PmSTI)” are 30.6 IU, 50.9, 8.54 IU and 14.2.
